Test results as given in patent publication US20240383984A1 (Genentech, published 2024).

Assays:
[1] = biological target: truncated FcRH5 (deletion of amino acids 1-744) with N-terminal gD tag, on cells (human) (UniProt Q96RD9); assay: cell-based or functional assay
[2] = biological target: T1, human FcRH3 (full-length, on SVT2 cells) (human, UniProt Q96P31 18-734); assay: flow cytometry, SVT2 cells
T1 construct: whole, on cells; also called SVT2-FcRH3
T1 sequence (looked up): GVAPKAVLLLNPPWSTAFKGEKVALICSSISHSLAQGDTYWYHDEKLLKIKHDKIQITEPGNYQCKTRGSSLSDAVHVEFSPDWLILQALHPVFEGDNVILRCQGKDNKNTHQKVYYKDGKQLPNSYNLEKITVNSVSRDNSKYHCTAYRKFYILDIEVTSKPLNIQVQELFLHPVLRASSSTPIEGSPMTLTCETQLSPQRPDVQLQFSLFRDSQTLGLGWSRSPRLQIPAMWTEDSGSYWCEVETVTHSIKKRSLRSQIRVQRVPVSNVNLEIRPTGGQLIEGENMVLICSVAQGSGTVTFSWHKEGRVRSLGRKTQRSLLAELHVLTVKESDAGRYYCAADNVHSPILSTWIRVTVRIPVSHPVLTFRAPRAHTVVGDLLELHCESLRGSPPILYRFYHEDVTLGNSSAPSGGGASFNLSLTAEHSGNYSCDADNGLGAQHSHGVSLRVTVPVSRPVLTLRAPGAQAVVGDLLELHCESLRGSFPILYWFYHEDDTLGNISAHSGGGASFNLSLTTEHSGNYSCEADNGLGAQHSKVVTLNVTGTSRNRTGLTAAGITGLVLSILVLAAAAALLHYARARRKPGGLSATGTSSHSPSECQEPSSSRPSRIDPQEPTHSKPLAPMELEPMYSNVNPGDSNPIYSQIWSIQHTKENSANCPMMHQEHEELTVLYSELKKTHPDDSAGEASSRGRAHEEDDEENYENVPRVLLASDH
Procedure: (§1) Human FcRH5, cyno FcRH5, human FcRH1, FcRH2, FcRH3, and FcRH4 transfected mouse SVT2 cells were used to test binding and cross-reactivity of FcRH5 TDBs. The method was carried out as follows. Cultured SVT2 cells were lifted using non-enzyme cell dissociation buffer (Sigma, #C5914). 1×10⁵ cells were suspended in 100 μL and incubated with FcRH5 TDBs at 3 μg/ml. […] Cells were washed twice with FACS buffer before flow cytometry analysis was carried out on a FACSCalibur.

[3] = biological target: T2, human FcRH5 (full-length, on cells) (human, UniProt Q96RD9 16-977); assay: flow cytometry, SVT2 cells
T2 construct: Transfected SVT2/293 cells or endogenous expression (MOLP-2, primary cells); also called SVT2-FcRH5; SVT2-huFcRH5
T2 sequence: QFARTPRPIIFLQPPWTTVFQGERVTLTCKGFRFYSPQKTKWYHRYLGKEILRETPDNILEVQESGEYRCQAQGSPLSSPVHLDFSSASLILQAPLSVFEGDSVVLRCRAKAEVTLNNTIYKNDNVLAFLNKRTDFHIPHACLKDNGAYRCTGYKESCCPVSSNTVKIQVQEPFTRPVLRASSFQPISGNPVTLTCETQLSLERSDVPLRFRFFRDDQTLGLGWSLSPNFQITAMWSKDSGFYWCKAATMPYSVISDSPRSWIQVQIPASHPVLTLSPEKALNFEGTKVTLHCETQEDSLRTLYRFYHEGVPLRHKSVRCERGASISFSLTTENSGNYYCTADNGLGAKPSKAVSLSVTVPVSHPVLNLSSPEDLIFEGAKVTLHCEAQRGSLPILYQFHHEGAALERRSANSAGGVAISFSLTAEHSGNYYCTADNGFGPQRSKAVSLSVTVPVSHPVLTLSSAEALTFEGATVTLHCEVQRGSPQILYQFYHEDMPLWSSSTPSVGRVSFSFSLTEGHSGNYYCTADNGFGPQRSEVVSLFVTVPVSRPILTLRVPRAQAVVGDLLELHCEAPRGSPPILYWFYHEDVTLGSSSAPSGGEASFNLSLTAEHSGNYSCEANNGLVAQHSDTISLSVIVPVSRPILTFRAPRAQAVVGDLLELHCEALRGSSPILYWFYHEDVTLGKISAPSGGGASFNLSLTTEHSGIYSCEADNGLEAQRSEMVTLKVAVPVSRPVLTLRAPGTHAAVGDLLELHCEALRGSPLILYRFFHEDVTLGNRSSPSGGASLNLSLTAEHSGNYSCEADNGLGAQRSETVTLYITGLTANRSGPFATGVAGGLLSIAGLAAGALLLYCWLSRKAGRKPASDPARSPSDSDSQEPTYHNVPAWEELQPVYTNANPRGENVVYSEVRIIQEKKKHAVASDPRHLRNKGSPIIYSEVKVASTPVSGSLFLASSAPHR
Procedure: as §1

[4] = biological target: T3, cynomolgus FcRH5 protein fragment (soluble) (cynomolgus monkey); assay: BIACORE
T3 construct: whole entry named; also called Cyno FcRH5 (BIACORE analyte)
T3 chain: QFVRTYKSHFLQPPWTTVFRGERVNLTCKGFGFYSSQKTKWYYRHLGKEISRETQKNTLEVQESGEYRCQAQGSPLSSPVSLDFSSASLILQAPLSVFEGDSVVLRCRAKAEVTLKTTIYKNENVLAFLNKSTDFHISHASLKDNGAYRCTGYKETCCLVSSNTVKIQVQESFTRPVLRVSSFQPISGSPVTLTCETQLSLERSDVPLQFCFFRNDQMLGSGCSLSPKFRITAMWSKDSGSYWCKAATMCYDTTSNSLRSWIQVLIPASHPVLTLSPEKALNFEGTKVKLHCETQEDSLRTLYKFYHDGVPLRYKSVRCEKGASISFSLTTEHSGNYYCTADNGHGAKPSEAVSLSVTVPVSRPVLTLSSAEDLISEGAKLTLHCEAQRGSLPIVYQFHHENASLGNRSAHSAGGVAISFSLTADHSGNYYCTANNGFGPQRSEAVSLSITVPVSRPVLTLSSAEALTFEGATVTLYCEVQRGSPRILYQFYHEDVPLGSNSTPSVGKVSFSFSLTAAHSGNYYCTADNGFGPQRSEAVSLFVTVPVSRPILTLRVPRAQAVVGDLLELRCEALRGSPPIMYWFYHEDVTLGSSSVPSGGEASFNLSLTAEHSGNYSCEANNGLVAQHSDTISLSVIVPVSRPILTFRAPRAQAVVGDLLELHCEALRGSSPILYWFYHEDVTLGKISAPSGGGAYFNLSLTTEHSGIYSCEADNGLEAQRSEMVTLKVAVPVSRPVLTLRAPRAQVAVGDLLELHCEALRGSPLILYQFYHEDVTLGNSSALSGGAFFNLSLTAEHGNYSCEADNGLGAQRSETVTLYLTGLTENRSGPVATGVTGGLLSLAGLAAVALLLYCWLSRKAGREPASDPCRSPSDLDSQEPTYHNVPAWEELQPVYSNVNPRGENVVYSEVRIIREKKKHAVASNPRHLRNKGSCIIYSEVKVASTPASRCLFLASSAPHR

[5] = biological target: T4, human FcRH5 protein fragment (soluble) (human, UniProt Q96RD9 16-851); assay: BIACORE
T4 construct: whole entry named; also called soluble human FcRH5; Human FcRH5 (BIACORE analyte)
T4 sequence: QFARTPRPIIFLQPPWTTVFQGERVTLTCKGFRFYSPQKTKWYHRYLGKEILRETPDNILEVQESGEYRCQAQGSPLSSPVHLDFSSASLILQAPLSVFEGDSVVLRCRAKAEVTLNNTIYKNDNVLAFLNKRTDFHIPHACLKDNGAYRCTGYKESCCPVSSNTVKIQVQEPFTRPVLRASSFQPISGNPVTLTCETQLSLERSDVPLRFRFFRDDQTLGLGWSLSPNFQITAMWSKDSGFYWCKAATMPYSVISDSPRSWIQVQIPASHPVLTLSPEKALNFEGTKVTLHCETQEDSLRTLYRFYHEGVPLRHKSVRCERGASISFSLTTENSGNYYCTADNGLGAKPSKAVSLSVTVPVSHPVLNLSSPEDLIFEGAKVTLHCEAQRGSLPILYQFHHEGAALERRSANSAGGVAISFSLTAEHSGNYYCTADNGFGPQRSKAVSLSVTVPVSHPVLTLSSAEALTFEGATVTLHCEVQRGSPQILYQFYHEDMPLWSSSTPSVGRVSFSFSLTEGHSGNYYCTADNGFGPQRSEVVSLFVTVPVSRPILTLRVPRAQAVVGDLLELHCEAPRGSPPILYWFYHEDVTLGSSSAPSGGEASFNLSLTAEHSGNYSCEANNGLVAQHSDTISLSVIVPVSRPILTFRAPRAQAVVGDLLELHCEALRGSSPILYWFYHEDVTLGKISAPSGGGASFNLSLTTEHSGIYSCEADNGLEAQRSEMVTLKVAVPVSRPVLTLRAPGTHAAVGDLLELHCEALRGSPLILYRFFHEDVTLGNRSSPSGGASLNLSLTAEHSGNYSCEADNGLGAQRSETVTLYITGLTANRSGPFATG

[6] = biological target: T3, cynomolgus FcRH5 protein fragment …; assay: SPR (BIACORE), Cyno FcRH5, 1:1 binding model
[7] = biological target: T4, human FcRH5 protein fragment (soluble); assay: SPR (BIACORE), Human FcRH5, 1:1 binding model
[8] = biological target: T4, human FcRH5 protein fragment (soluble); assay: SPR screening
human CD3ε = biological target: T5, human CD3ε (human, UniProt P07766 23-126, limits assumed); assay: BIACORE and Scatchard, monovalent
T5 construct: also called hCD3ε
T5 sequence (P07766 23-126 limits assumed): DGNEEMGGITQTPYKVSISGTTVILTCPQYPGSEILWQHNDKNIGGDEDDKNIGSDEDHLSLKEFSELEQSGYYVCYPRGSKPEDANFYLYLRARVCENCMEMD

In the case of “anti-gD/UCHT1.v9 TDB (bispecific antibody)”, the target cell killing with the truncated FcRH5 construct, EC50 [1] is reported as 0.19 nM.

B1: hu1G7.v87/38E4.v1 TDB (bispecific antibody, V domains shown)
VH 1: EVQLVESGPGLVKPSETLSLTCTVSGFSLTRFGVHWVRQPPGKGLEWLGVIWRGGSTDYNAAFVSRLTISKDNSKNQVSLKLSSVTAADTAVYYCSNHYYGSSDYALDNWGQGTLVTVSS
VL 1: DIQMTQSPSSLSASVGDRVTITCKASQDVSNIVVWFQQKPGKSPKLLIYSASYRYTGVPSRFSGSGSGTDFTLTISSLQPEDFATYYCQQHYSSPYTFGQGTKVEIK
VH 2: EVQLVQSGAEVKKPGASVKVSCKASGFTFTSYYIHWVRQAPGQGLEWIGWIYPENDNTKYNEKFKDRVTITADTSTSTAYLELSSLRSEDTAVYYCARDGYSRYYFDYWGQGTLVTVSS
VL 2: DIVMTQSPDSLAVSLGERATINCKSSQSLLNSRTRKNYLAWYQQKPGQSPKLLIYWTSTRKSGVPDRFSGSGSGTDFTLTISSLQAEDVAVYYCKQSFILRTFGQGTKVEIK
notes: knob-into-hole TDB; also called 1G7.v87 TDB
B1: no binding [2]; binds [3].

B2: hu1G7.v93/38E4.v1 TDB (bispecific antibody, V domains shown)
VH 1: EVQLVESGPGLVKPSETLSLTCTVSGFSTTRFGVHWVRQPPGKGLEWLGVIWRGGSTDYNAAFVSRLTISKDNSKNQVSLKLSSVTAADTAVYYCSNHYYGSPDYALDNWGQGTLVTVSS
VL 1: DIQMTQSPSSLSASVGDRVTITCKASQDVSNLVVWFQQKPGKAPKLLIYSGSYRYSGVPSRFSGSGSGTDFTLTISSLQPEDFATYYCQQHYSPPYTFGQGTKVEIK
VH 2: EVQLVQSGAEVKKPGASVKVSCKASGFTFTSYYIHWVRQAPGQGLEWIGWIYPENDNTKYNEKFKDRVTITADTSTSTAYLELSSLRSEDTAVYYCARDGYSRYYFDYWGQGTLVTVSS
VL 2: DIVMTQSPDSLAVSLGERATINCKSSQSLLNSRTRKNYLAWYQQKPGQSPKLLIYWTSTRKSGVPDRFSGSGSGTDFTLTISSLQAEDVAVYYCKQSFILRTFGQGTKVEIK
notes: knob-into-hole TDB; also called 1G7.v93 TDB
Work on B2 yielded a Kd [4] of 8.1 nM, a Kd [5] of 1.1 nM and a Kd [6] of 8.08 nM. It also gave a koff [6] of 0.000417 s⁻¹, a kon [6] of 51600 M⁻¹ s⁻¹ and a koff [7] of 0.000421 s⁻¹. It also gave a kon [7] of 395000 M⁻¹ s⁻¹.

B3: hu1G7.v1 with heavy chain L29T and S56T (antibody, V domains shown)
VH: EVQLVESGPGLVKPSETLSLTCTVSGFSTTRFGVHWVRQPPGKGLEWLGVIWRGGTTDYNAAFMSRLTISKDNSKNQVSLKLSSVTAADTAVYYCSNHYYGSSDYALDNWGQGTLVTVSS
VL: DIQMTQSPSSLSASVGDRVTITCKASQDVSNIVVWFQQKPGKSPKLLIYSASYRYTGVPSRFSGSGSGTDFTLTISSLQPEDFATYYCQQHYSSPYTFGQGTKVEIK
notes: also called L29T/S56T double mutant
In the case of B3, the “average fold improvement in affinity” value [8] is reported as 1.2 fold.

B4: UCHT1.v9 (antibody, V domains shown)
VH: EVQLVESGGGLVQPGGSLRLSCAASGYSFTGYTMNWVRQAPGKDLEWVALINPYKGVSTYNQKFKDRFTISVDKSKNTAYLQMNSLRAEDTAVYYCARSGYYGDSDWYFDVWGQGTLVTVSS
VL: DIQMTQSPSSLSASVGDRVTITCRASQDIRNYLNWYQQKPGKAPKLLIYYTSRLESGVPSRFSGSGSGTDYTLTISSLQPEDFATYYCQQGNTLPWTFGQGTKLELK
notes: humanized anti-CD3; also called huUCHT1.v9
In the case of B4, the Kd (human CD3ε) is reported as 2.5 nM.
